Data on two substances can be found in patent US20180346588A1.

Assay [1] deals with human mesothelin (MSLN) on the cell surface (human) (UniProt Q13421). As to the kind of experiment: FACS on MiaPaCa-MSLN #2 cells, upper histogram and table; negative control.
For assay [2] the target is unchanged. Nature of the assay: FACS on MSLN stable cell line (#2), left panels; negative control; sheet note: 1st Ab 1 µg (1st assay), 2nd Ab anti-human Fc antibody FITC.
For assay [3] the target is unchanged. Nature of the assay: FACS on MSLN stable cell line (#2), right panels; negative control; sheet note: 1st Ab 0.36 µg (2nd assay), 2nd Ab anti-human Fc antibody FITC.
Assay [4] has the same target. As to the kind of experiment: FACS on MiaPaCa-MSLN #2 cells, upper histogram and table.
Assay [5] has the same target. As to the kind of experiment: FACS on MSLN stable cell line (#2), left panels; sheet note: 1st Ab 1 µg (1st assay), 2nd Ab anti-human Fc antibody FITC.
The target is the same in assay [6]. As to the kind of experiment: FACS on MSLN stable cell line (#2), right panels; sheet note: 1st Ab 0.36 µg (2nd assay), 2nd Ab anti-human Fc antibody FITC.

Chain of human mesothelin (MSLN) on the cell surface (human) (Q13421 other isoform, or with tags, fused parts or gaps limits assumed): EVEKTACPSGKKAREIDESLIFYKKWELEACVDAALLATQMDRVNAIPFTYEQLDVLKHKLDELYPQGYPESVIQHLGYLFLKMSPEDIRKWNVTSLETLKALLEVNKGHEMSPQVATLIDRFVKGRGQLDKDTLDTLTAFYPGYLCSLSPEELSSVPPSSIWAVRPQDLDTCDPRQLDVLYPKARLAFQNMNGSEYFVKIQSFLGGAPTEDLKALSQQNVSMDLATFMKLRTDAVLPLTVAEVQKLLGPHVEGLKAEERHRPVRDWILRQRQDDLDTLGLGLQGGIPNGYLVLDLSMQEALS

On to hIgG (antibody), for which the Mean, FL2-H in assay [1] is 8.6. Also, the results for the Mean, FL1-H in assay [2] and in assay [3] were 3.36 and 4.81, respectively.

Consider Morab (antibody), for which the Mean, FL2-H in assay [4] stood at 3190. Also, the Mean, FL1-H in assay [5] came to 515; in assay [6], 263.
